The text below walks through data of patent publication US20180362582A1 (SOCPRA SCIENCES SANT ET HUMAINES S E C, published 2018).

Numbered stars: 1 amine (or outer) side, 2 acyl side, 3 side chain; on linkers, the order of the positions; unused ones are H or OH. Bridge positions count the residues as written; N and C are the ends. Square brackets hold non-standard residues; d marks the D form. Ends that are not written are not given here. * marks the point of attachment. nonenoic acid = non-8-enoic acid residue (acyl cap with no amine) whose terminal alkene closes the ring by metathesis with the o-allyl-tyrosine, C=CCCCCCCC(=O)*; Tyr(3-All) = 3-allyl-tyrosine (allyl on ring carbon ortho to the phenol OH), C=CCc1cc(C[C@H](N[*:1])C(=O)[*:2])ccc1O[*:3]; OctenylA = alpha-methyl-octenylalanine = 2-(7-octenyl)alanine; 6‑(allylamino)hexanoyl = C=CCNCCCCCC(=O)*

The target in assay [1] is T1, rat NTS2-YFP receptor (rat, UniProt Q63384 1-416).
T1 construct: whole, on cells; Used as cell membranes of transfected DRG-F11 cells; also called rNTS2-YFP; rNTS2
T1 sequence (Q63384 whole entry, looked up): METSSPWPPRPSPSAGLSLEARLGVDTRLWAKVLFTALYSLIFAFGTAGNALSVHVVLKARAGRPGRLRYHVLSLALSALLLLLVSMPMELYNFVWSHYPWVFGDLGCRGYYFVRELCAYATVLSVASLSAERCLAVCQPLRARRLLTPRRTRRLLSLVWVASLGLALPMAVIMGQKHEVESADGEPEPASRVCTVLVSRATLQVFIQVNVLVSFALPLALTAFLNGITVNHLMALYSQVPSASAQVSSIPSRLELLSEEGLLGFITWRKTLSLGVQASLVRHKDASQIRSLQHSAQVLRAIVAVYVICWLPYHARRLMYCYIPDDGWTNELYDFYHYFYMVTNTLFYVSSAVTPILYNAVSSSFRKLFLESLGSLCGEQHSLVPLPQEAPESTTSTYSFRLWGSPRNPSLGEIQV
In words: displacement of radiolabeled neurotensin from rNTS2-YFP membranes by a single 1 µM dose. As for the experimental part: (§1) DRG-F11 cells were cultured in DMEM supplemented with 10% FBS, 100 U/mL penicillin, 100 μg/mL streptomycin, and 20 mM HEPES. DRG-F11 were seeded at 2.2×10⁶ cells in a 10 cm Petri dish and transfected 24 h after plating with 10 μg of DNA coding for the rat NTS2-YFP receptor using Xtreme Gene™ HP as a transfection agent. Membrane preparation was conducted 48 h after transfection, as described below.
(§2) Transfected cells expressing the rNTS2-YFP receptor were used 48 h after transfection. Membranes were prepared by scraping cells off the culture dish with 50 mM Tris ph 7.5 and centrifuged at 15,000 g for 5 min at 4° C. The pellet was resuspended in 10 mM Tris, 1 mM EDTA pH 7.5 and sonicated for 30 s prior to be centrifugated at 15,000 g for 30 min at 4° C. The pellet was then re-suspended in binding 9 buffer. […] All other steps in binding experiments were unchanged comparing to the one using the NTS1 receptor.

In assay [2] the target is T2, hNTS1 receptor (human (printed as hNTS1), UniProt P30989 1-418).
T2 construct: whole, on cells; also called neurotensin 1 (NTS1) receptor
T2 sequence (P30989 whole entry): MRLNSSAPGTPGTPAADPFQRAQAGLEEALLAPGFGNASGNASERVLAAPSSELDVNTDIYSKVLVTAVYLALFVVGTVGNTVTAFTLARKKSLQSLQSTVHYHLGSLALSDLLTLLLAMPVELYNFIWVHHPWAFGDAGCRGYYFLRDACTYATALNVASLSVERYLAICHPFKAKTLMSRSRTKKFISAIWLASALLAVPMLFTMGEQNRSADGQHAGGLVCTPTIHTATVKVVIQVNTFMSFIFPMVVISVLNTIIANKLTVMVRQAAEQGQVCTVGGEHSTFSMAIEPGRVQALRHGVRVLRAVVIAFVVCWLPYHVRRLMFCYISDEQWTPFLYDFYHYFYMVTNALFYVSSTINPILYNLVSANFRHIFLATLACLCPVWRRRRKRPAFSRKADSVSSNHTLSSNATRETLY
In words: competitive radioligand binding, 125I-[Tyr3]-NT, CHO-K1 membranes expressing hNTS1; Ki by Cheng-Prusoff.

The target of assay [3] is hNTS1-Green fluorescent protein 10(GFP10) (human (printed as hNTS1), UniProt P30989 1-418). In words: cell-based or functional assay.
Chain of hNTS1-Green fluorescent protein 10(GFP10) (P30989 whole entry): as above
Assay [4] addresses T1, rat NTS2-YFP receptor. Kind of assay: competitive radioligand binding, 125I-[Tyr3]-NT, DRG-F11 membranes expressing rNTS2-YFP. The protocol:
as §1, §2

In assay [5] the target is rat NTS2-YFP receptor (rat, UniProt Q63384 1-416). Kind of assay: displacement of radiolabeled neurotensin from rNTS2-YFP membranes by a single 1 µM dose. As for the experimental part: as §1, §2
The target of assay [6] is T2, hNTS1 receptor. Kind of assay: competitive radioligand binding, 125I-[Tyr3]-NT, CHO-K1 membranes expressing hNTS1.
The target of assay [7] is T2, hNTS1 receptor. Kind of assay: cell-based or functional assay.

As for {6‑(allylamino)hexanoyl}-KP[Tyr(3-All)]IL (staple (positions not given here); not fully specified (bridges), also called compound 6) [6 c[aminohex-6-enoic acid(All)KPY(All)]IL], in the assay with rat NTS2-YFP receptor [1], the “% displ at 1 µM” value was determined as 93%. Also, the affinity with hNTS1 receptor [2] corresponds to a Ki of 656 nM. In assay [3], the “EC50 β-arr1” value worked out at 96 nM. The molecule also returned a concentration for half-maximal inhibition (IC50) in the assay with rat NTS2-YFP receptor [4] of 2300 nM.
Turning to RRPYIL (also called neurotensin (8-13)) [NT 8-13 RRPYIL], in the assay with rat NTS2-YFP receptor [5], the “% displ at 1 µM” value was found to be 100%.

B1: 10 c[K(pentenyl)KPY(All)]IL (peptide)
peptide: XKPXIL
modifications: residue 1 is N-pentenyl-lysine; Tyr is o-allyl-tyrosine; the two joined by ring-closing metathesis; 25 ring atoms
notes: also called compound 10
For the molecule B1, the “% displ at 1 µM” value with rat NTS2-YFP receptor [1] was 105%. The IC50 with rat NTS2-YFP receptor [4] was 128 nM.

B2: 9 c[K(butenyl)KPY(All)]IL (peptide)
peptide: XKPXIL
modifications: residue 1 is N-butenyl-lysine; Tyr is o-allyl-tyrosine; the two joined by ring-closing metathesis; 24 ring atoms
notes: also called compound 9
For B2, the “% displ at 1 µM” value with rat NTS2-YFP receptor [1] is 104%. For the same molecule, in the assay with rat NTS2-YFP receptor [4], the IC50 was 47.2 nM.

B3: 1-M (or 1) c[nonenoic acid KPY(All)]IL (peptide)
peptide: {nonenoic acid}-KP[Tyr(3-All)]IL
modifications: staple (positions not given here); not fully specified (bridges)
notes: Macrocycle; E and Z isomers were not separated; also called compound 1
For B3, the Ki with hNTS1 receptor [2] was determined as 5600 nM. Also, the IC50 in the assay with hNTS1 receptor [6] worked out at 394 nM. The “EC50 G13” value in the assay with hNTS1 receptor [7] was 433 nM. In addition, in assay [3], the “EC50 β-arr1” value was determined as 1500 nM.

B4: 3 c[OctenylAKPY(All)]IL (peptide)
peptide: [OctenylA]KPXIL
modifications: staple 1-4; not fully specified (residue 4); printed as 3 c[OctenylAKPY(All)]IL
notes: Diastereoisomer of compound 12; also called compound 3
With B4, the “% displ at 1 µM” value in the assay with rat NTS2-YFP receptor [1] was found to be 96%.
